Laboratory results from article PMC11982978, “Cancer hotspot mutations rewire ERK2 specificity by selective exclusion of docking interactions” (The Journal of Biological Chemistry, 2025).
Square brackets hold non-standard residues; d marks the D form. Ends that are not written are not given here.

Target: T1, Active phosphorylated His6-tagged ERK2 WT (rat (p-0033 says mouse), UniProt P63086 3-358, phosphorylated (active form; sites not given))
T1 construct: ERK2 (MAPK1); rat numbering; Same plasmid as the crystallised protein m9, but phosphorylated; also called WT ERK2; His6-ERK2; source: E. coli BL21(DE3), co-expressed with GST-MEK1ΔN3, purified (Talon resin)
Assay: competitive peptide kinase assay; D-peptide titrated as competitive inhibitor of 10 nM ERK2 on 5 μM D-site dependent reporter peptide (AQT0376), 10 μM ATP; 54 mM HEPES pH 7.4, 1.2 mM DTT, 0.01% Brij-35, 1% glycerol, 0.2 mg/ml BSA, 10 mM MgCl2; fluorescence read-out; IC50 as relative binding affinity
Conditions: both partners purified

| IC50 | Binder |
| --- | --- |
| 5.4 µM | YAIRARRGLPRLAVSD (not fully specified, ISG20, human, residues 168-181; also called ISG20^WT; ISG20 peptide WT; source: synthetic peptide (GenScript)) [ISG20 D-peptide WT (competitive kinase assay form, with N-terminal Tyr-Ala)] |
| 190 µM | YANRARRGLPRLAVSD (not fully specified (some residues), ISG20, human, residues 168-181 with the change; numbers count on: the 14-mer peptide (position 1 = Ile168); also called ISG20^I1N; source: synthetic peptide (GenScript)) [ISG20 D-peptide I1N] |
| 41 µM | [dY][dA][dI][dR][dA][dR][dR][dQ][dL][dP][dR][dL][dA][dV][dS][dD] (ISG20, human, residues 168-181 with the change; numbers count on: the 14-mer peptide (position 1 = Ile168); also called ISG20^G6Q; source: synthetic peptide (GenScript)) [ISG20 D-peptide G6Q] |
| 200 µM | YARIARRGLPRLAVSD (not fully specified (some residues), ISG20, human, residues 168-181 with the changes; numbers count on: the 14-mer peptide (position 1 = Ile168); also called ISG20^I1R/R2I; source: synthetic peptide (GenScript)) [ISG20 D-peptide I1R/R2I] |
